B1: Bud emergence protein 1 (Saccharomyces cerevisiae), P29366 (parent)
chain: MLKNFKLSKRDSNGSKGRITSADISTPSHDNGSVIKHIKTVPVRYLSSSSTPVKSQRDSSPKNRHNSKDITSPEKVIKAKYSYQAQTSKELSFMEGEFFYVSGDEKDWYKASNPSTGKEGVVPKTYFEVFDRTKPSSVNGSNSSSRKVTNDSLNMGSLYAIVLYDFKAEKADELTTYVGENLFICAHHNCEWFIAKPIGRLGGPGLVPVGFVSIIDIATGYATGNDVIEDIKSVNLPTVQEWKSNIARYKASNISLGSVEQQQQQSITKPQNKSAKLVDGELLVKASVESFGLEDEKYWFLVCCELSNGKTRQLKRYYQDFYDLQVQLLDAFPAEAGKLRDAGGQWSKRIMPYIPGPVPYVTNSITKKRKEDLNIYVADLVNLPDYISRSEMVHSLFVVLNNGFDREFERDENQNNIKTLQENDTATFATASQTSNFASTNQDNTLTGEDLKLNKKLSDLSLSGSKQAPAQSTSGLKTTKIKFYYKDDIFALMLKGDTTYKELRSKIAPRIDTDNFKLQTKLFDGSGEEIKTDSQVSNIIQAKLKISVHDI
partner: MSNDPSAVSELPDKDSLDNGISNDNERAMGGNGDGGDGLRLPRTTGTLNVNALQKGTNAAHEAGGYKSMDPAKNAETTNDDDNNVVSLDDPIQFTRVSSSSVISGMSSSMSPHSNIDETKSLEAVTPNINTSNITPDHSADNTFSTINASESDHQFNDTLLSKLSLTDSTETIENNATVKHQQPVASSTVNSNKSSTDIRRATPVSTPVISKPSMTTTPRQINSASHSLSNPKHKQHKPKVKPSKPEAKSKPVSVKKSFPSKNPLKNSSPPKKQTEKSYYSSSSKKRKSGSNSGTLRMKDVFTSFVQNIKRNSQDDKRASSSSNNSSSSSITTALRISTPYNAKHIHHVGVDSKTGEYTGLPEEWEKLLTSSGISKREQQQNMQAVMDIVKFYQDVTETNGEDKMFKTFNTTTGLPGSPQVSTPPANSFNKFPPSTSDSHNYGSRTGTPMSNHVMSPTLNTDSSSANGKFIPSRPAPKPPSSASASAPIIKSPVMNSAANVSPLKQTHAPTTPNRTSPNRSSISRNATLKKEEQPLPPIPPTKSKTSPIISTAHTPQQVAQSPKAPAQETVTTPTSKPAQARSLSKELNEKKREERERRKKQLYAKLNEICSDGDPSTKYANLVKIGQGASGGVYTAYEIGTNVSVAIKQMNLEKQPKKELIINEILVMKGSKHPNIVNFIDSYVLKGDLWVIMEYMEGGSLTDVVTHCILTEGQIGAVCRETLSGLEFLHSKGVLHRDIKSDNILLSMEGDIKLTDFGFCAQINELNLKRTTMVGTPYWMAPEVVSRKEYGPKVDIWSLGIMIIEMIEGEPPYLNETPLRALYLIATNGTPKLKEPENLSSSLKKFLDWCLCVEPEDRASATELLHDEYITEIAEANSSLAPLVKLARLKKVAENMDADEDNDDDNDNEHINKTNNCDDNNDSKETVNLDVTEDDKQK
B2: Serine/threonine-protein kinase STE20 (Saccharomyces cerevisiae), Q03497 (parent)
chain: B1 partner
partner: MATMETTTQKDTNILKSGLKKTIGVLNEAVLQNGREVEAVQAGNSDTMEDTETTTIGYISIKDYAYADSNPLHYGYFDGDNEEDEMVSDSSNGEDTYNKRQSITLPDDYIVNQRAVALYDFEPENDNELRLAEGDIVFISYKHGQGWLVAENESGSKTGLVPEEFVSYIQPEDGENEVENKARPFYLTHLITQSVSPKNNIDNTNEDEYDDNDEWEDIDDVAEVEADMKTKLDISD
B3: Serine/threonine-protein kinase STE20 (Saccharomyces cerevisiae), Q03497 (parent)
chain: B1 partner
partner: B1 chain

Variants of: B1
Conditions: with ste20_yeast STE20, Q03497

Row | Variant | effect of a mutation on the interaction
1 | W192A | decreasing interaction

Variants of: B2
Conditions: with nbp2_yeast NBP2, Q12163

Row | Variant | effect of a mutation on the interaction
2 | P475G;P477A | decreasing interaction

Variants of: B3
Conditions: with bem1_yeast BEM1, P29366

Row | Variant | effect of a mutation on the interaction
3 | P477A | decreasing interaction
4 | P475G;P477A | decreasing interaction
5 | A476G | decreasing interaction
6 | P480A | decreasing interaction
7 | I471G | decreasing interaction
8 | R474G | decreasing interaction
9 | F470G | decreasing interaction
10 | P472A | decreasing interaction
11 | P475G | decreasing interaction
12 | P479A | decreasing interaction
13 | S473A | decreasing interaction

Variants of: B3
Conditions: with bem1_yeast BEM1, P29366
Remark: another data set of the same source

Row | Variant | effect of a mutation on the interaction
14 | P475G;P477A | decreasing interaction

Source: IntAct's records for PubMed 15743816
